Measured values taken from paper PMC12583524.

B1: C37 Fab (papain digestion of the mAb) (Fab, V domains shown)
VH: QVQLQESGPGLVKPSETLSLTCTVSGGSIGSSSYYWGWIRQPPGKGLQWIGSFHYSGTTYYNPSLKSRVTISVDTSKNHFSLKLSSVTAADTAVYYCASRQNWNDGYFDYWGQGTLVTVSS
VL: DIQMTQSPATLSLSPGERATLFCRASQSVSSSLAWYQQKPGQAPRLLIYDASNRATGIPARFSGSGSGTDFTLTISSLEPEDFAVYYCQQRGNWPPITFGQGTRLDTK
B2: C37 IgG (antibody, V domains shown)
VH: QVQLQESGPGLVKPSETLSLTCTVSGGSIGSSSYYWGWIRQPPGKGLQWIGSFHYSGTTYYNPSLKSRVTISVDTSKNHFSLKLSSVTAADTAVYYCASRQNWNDGYFDYWGQGTLVTVSS
VL: DIQMTQSPATLSLSPGERATLFCRASQSVSSSLAWYQQKPGQAPRLLIYDASNRATGIPARFSGSGSGTDFTLTISSLEPEDFAVYYCQQRGNWPPITFGQGTRLDTK
B3: C34 IgG (antibody, V domains shown)
VH: EVQLVESGGGLVQPGRSLRLSCAASGFTFDDYAMHWVRQAPGKGLEWVSGISWNSGSIGYADSVKGRFTISRDNAKNSLYLQMNSLRAEDTALYYCAKDMGYSGNDDYYGMDVWGQGTTVTVSS
VL: DIQLTQSPSSLSASVGDRVTITCRASQRISSYLNWYQQKPGKAPKLLIYGAFSLQSGVPSRFSGSGSGTDFTLTISSLQPEDFATYYCQQSYRTLTRTFGQGTKVEIK
B4: C34 Fab (papain digestion of the mAb) (Fab, V domains shown)
VH: EVQLVESGGGLVQPGRSLRLSCAASGFTFDDYAMHWVRQAPGKGLEWVSGISWNSGSIGYADSVKGRFTISRDNAKNSLYLQMNSLRAEDTALYYCAKDMGYSGNDDYYGMDVWGQGTTVTVSS
VL: DIQLTQSPSSLSASVGDRVTITCRASQRISSYLNWYQQKPGKAPKLLIYGAFSLQSGVPSRFSGSGSGTDFTLTISSLQPEDFATYYCQQSYRTLTRTFGQGTKVEIK

Target: infectious CHIKV virion particle with E3 associated (strain CHIKV-181/25) (Chikungunya virus) (UniProt Q8JUX5)
Sequence (Q8JUX5 whole entry, looked up): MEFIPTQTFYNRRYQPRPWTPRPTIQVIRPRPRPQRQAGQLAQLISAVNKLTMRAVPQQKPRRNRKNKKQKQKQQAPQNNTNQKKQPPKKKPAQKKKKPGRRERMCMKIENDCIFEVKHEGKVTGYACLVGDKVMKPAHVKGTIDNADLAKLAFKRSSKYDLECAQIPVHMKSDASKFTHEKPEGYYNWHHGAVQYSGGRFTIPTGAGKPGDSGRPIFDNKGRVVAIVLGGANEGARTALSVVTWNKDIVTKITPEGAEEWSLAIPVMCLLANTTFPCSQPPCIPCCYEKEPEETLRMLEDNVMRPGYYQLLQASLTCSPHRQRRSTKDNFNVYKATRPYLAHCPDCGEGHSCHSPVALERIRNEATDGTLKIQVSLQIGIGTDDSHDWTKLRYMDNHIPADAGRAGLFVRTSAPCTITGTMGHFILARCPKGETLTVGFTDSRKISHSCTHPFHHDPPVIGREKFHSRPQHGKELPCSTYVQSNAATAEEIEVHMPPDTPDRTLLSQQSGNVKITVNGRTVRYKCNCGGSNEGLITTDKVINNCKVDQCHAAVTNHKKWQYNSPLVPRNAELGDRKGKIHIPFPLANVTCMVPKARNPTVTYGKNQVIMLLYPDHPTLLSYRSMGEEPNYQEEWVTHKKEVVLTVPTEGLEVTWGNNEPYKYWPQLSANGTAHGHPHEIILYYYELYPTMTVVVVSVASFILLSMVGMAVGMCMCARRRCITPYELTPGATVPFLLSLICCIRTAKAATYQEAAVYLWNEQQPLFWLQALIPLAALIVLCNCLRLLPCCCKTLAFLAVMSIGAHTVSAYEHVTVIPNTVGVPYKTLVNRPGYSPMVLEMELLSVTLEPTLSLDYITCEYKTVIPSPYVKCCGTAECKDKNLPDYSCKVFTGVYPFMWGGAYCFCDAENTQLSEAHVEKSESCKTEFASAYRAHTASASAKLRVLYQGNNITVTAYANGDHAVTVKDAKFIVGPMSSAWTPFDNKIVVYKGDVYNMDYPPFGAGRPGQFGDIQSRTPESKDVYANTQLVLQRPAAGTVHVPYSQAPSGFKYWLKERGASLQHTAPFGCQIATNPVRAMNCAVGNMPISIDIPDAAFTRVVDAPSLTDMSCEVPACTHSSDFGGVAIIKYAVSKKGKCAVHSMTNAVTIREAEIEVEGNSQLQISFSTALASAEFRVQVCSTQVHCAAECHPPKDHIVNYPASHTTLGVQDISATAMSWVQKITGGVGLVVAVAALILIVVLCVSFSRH

Point of comparison: B3, PRNT50, post-attachment neutralisation assay on Vero cells 48.7 ng/mL. Against it:
- B1 — 15-fold higher, 727 ng/mL
- B2 — 3.4-fold higher, 164 ng/mL
- B4 — 2-fold higher, 97 ng/mL
